Reference: publication PMC2965674, “Functional Roles of the N- and C-Terminal Regions of the Human Mitochondrial Single-Stranded DNA-Binding Protein” (PLoS ONE, 2010)

Assays:
[1] = biological target: HsmtSSBΔN, deletion variant lacking the first 9 residues in the N-terminus of mature HsmtSSB (human); experiment: SEC + other: glycerol gradient velocity sedimentation; 12-30% glycerol gradients, 264,000 x g, 63 hr, 4°C, 35 mM Tris-HCl pH 7.5, 100 mM NaCl, 2 mM EDTA, 5 mM DTT; Superdex 75 gel filtration in the same buffer with 8% glycerol, 4°C; native mass calculated from the S value and the Stokes radius
[2] = biological target: the molecule itself; experiment: as above
HsmtSSBΔN = biological target: T1, HsmtSSBΔN (Homo sapiens, UniProt Q04837 =M+26-148, internal_change); experiment: EMSA; 50 mM NaCl, 4 mM Mg2+; apparent Kd, protein as tetramer; 20 mM Tris-HCl pH 7.5, 1 mM DTT, 4 mM MgCl2, 50 mM NaCl, 36 fmol 48-mer in 20 µL, 20°C 10 min; 6% native PAGE; details: protein: recombinant; tags: none (untagged); chain copies: 4; label: 5'-32P; single strand
T1 sequence: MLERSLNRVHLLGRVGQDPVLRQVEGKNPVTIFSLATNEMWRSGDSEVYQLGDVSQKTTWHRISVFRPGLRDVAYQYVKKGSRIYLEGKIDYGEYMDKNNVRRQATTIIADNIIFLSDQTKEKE

[3] = biological target: T2, HsmtSSBwt (mature human mitochondrial SSB) (Homo sapiens, UniProt Q04837 17-148); experiment: as above; details: protein: recombinant; tags: none (untagged); chain copies: 4; label: 5'-32P; single strand
T2 sequence: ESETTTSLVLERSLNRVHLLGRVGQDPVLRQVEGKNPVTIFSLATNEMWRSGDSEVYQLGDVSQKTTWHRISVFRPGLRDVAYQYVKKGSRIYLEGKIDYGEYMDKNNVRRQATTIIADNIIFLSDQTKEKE

HsmtSSBΔC = biological target: T3, HsmtSSBΔC (Homo sapiens, UniProt Q04837 =M+17-141, internal_change); experiment: as above; details: protein: recombinant; tags: none (untagged); chain copies: 4; label: 5'-32P; single strand
T3 sequence: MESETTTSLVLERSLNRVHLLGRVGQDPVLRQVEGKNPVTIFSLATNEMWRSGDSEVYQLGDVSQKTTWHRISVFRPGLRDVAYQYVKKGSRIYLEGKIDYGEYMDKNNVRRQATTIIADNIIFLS

HsmtSSBΔNΔC = biological target: T4, HsmtSSBΔNΔC (Homo sapiens, UniProt Q04837 =M+26-141, internal_change); experiment: as above; details: protein: recombinant; tags: none (untagged); chain copies: 4; label: 5'-32P; single strand
T4 sequence: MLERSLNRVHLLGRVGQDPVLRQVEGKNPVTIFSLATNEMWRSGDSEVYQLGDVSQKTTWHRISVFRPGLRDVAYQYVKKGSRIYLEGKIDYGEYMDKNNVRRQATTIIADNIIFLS

“HsmtSSBΔN, deletion variant lacking the first 9 residues in the N-terminus of mature HsmtSSB (domain or fragment)” was tested, and the stoichiometry N [1] was 4.

B1: human mitochondrial single-stranded DNA-binding protein, mature wild type (HsmtSSBwt) (natural protein, UniProt Q04837 17-148, looked up)
chain: ESETTTSLVLERSLNRVHLLGRVGQDPVLRQVEGKNPVTIFSLATNEMWRSGDSEVYQLGDVSQKTTWHRISVFRPGLRDVAYQYVKKGSRIYLEGKIDYGEYMDKNNVRRQATTIIADNIIFLSDQTKEKE
notes: numbers count on: the mature protein; Untagged; The forward primer (CATATG GAGTCC...) puts a start methionine before the first mature residue; also called human mtSSB; source: E. coli BL21(DE3), pET-11a, untagged, purified (Blue Sepharose, phosphocellulose)
For B1, the “stoichiometry N” value [2] was 4.

B2: HsmtSSBΔC, deletion variant lacking the last 7 residues in the C-terminus of HsmtSSB (domain or fragment, human, UniProt Q04837 17-141, looked up)
chain: ESETTTSLVLERSLNRVHLLGRVGQDPVLRQVEGKNPVTIFSLATNEMWRSGDSEVYQLGDVSQKTTWHRISVFRPGLRDVAYQYVKKGSRIYLEGKIDYGEYMDKNNVRRQATTIIADNIIFLS
notes: human mtSSB, mature protein lacking its last 7 residues; numbers count on: the mature protein; Untagged; The reverse primer puts a new stop codon after codons that read ...D-N-I-I-F-L-S. A start methionine precedes the first mature residue
In the case of B2, the “stoichiometry N” value [2] is reported as 4.

B3: HsmtSSBΔNΔC, variant of HsmtSSB that lacks both termini (first 9 and last 7 residues of the mature protein) (domain or fragment, human, UniProt Q04837 26-141, looked up)
chain: LERSLNRVHLLGRVGQDPVLRQVEGKNPVTIFSLATNEMWRSGDSEVYQLGDVSQKTTWHRISVFRPGLRDVAYQYVKKGSRIYLEGKIDYGEYMDKNNVRRQATTIIADNIIFLS
notes: human mtSSB, mature protein lacking its first 9 and its last 7 residues; numbers count on: the mature protein; Untagged; Made with the forward primer of ΔN (new start methionine before L-E-R-S) and the reverse primer of ΔC (stop after ...F-L-S); source: E. coli BL21(DE3), pET-11a, untagged, purified (Blue Sepharose, phosphocellulose)
In the case of B3, the “stoichiometry N” value [2] is reported as 4.

Work on GGACTATTTATTAAATATATTTAAGAACTAATTCCAGCTGAGCGCCGG (ssDNA) [48-mer ssDNA oligonucleotide] yielded a Kd (HsmtSSBΔN) of ~5 nM, a Kd [3] of ~5 nM and a Kd (HsmtSSBΔC) of ~5 nM. The Kd (HsmtSSBΔNΔC) was ~5 nM.
